Substitutions are numbered along the chain they refer to. Read-outs that look alike come from different tables or passages of the source. Blank lines part the entries; values can stand above or below the molecule they belong to.
Tests used:
[1] = test system: restraint-induced ACTH and corticosterone; assay: Wildtype mice restraint-stress model (ACTH and corticosterone); format: in vivo, mouse; conditions: mAb 5 mg/kg
[2] = molecular target: T1, N-terminal region plus central region, central region only, central region plus C-terminal region of CRH (Homo sapiens, UniProt P06850); assay: ELISA determining the binding region of CRH; conditions: dash = no binding
T1 construct: N-terminal region plus the central region (CT biotin), the central region only (NT biotin or CT biotin)
Description: Streptavidin (Thermo, Cat: 21125) was diluted in PBS to a concentration of 2 μg/ml. 100 μl of diluted streptavidin was added per well to ELISA microplates, and the plates were incubated overnight at 4° C. Plates were blocked with ELISA blocking solution (containing 2% w/v BSA, 0.05% (v/v) Tween-20, pH 7.4 PBS buffer) at 37° C. for 1 hour, and then incubated with 1 μg/mL N-terminal region plus the central region (CT biotin), the central region only (NT biotin or CT biotin), or the central region plus C-terminal region (NT biotin) of CRH for 1 hour at 37° C. Plates were then washed and incubated with diluted anti-CRH antibody (Ab) at 15 μg/ml (100 nM, 10 diluted, 8 points) for 1 hour at 37° C. Subsequently, plates were washed and incubated with HRP-conjugated goat anti-human IgG (H+L) antibody (Jackson, Cat: 109-035-088) at 37° C. for 1 hour. 100 μL of 3,3′,5,5′-tetramethylbenzidine (TMB) substrate (Biopanda, Cat: TMB-S-003) was added, and the plates were incubated at room temperature for 15 minutes. 100 μL of ELISA stopping solution (Solarbio, Cat #: C1058) was added to terminate the reaction, and the optical density at 450 nm (OD450 nm) was determined by an ELISA plate reader (Molecular Devices, Spectra max 384 plus).

human UCN1 = molecular target: T2, human UCN1 (Homo sapiens, UniProt P55089); assay: Human UCN1 ELISA binding; conditions: in words
T2 sequence (P55089 83-122 limits assumed): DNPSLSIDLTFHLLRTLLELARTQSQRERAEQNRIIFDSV
Description: Streptavidin (Thermo, Cat: 21125) was diluted in PBS to a concentration of 2 μg/ml. 100 μl of diluted streptavidin was added per well to ELISA microplates, and the plates were incubated overnight at 4° C. Plates were blocked with ELISA blocking solution (containing 2% w/v BSA, 0.05% (v/v) Tween-20, pH 7.4 PBS buffer) at 37° C. for 1 hour, and then incubated with 0.5 μg/mL CRH (NT biotin), 0.5 μg/mL CRH (CT biotin), 1 μg/mL human UCN1 (NT biotin), or 1 μg/mL human UCN1 (CT biotin) for 1 hour at 37° C. Plates were then washed and incubated with diluted anti-CRH antibody (Ab) at 15 μg/ml (100 nM, 10 diluted, 8 points) for 1 hour at 37° C. Subsequently, plates were washed and incubated with HRP-conjugated goat anti-human IgG (H+L) antibody (Jackson, Cat: 109-035-088) at 37° C. for 1 hour. […] 100 μL of ELISA stopping solution (Solarbio, Cat #: C1058) was added to terminate the reaction, and the optical density at 450 nm (OD450 nm) was determined by an ELISA plate reader (Molecular Devices, Spectra max 384 plus).
Streptavidin (Thermo, Cat: 21125) was diluted in PBS with a concentration of 2 μg/mL. […] 100 μL of ELISA stopping solution (Solarbio, Cat #: C1058) was then added to terminate the reaction, and the OD450 nm was determined by an ELISA plate reader (Molecular Devices, Spectra max 384 plus).

B1: PR302334-24: humanized variant of Series 9 mAb PR302334; VH SEQ ID NO: 275, VL SEQ ID NO: 328 (antibody, V domains shown)
VH: EVQLVESGGGLVKPGGSLRLSCAASGFTFSTYAMSWVRQAPGKGLEWVASIRSGGTTYYPDSVKGRFTISRDNAKNSLYLQMNSLRAEDTAVYYCTRGIDWGQGTTVTVSS
VL: DIVMTQSPDSLAVSLGERATINCKASQSVNNDVAWYQQKPGQPPRLLIYYASNRYTGVPDRFSGSGSGTDFTLTISSLQAEDLAVYFCQQDYSSWTFGGGTKVEIK
modifications: PR302334-16 VH, PR302334-24 VH, PR302334-25 VH; PR302334-10 VL, PR302334-24 VL, PR302334-26 VL, PR302334-4 VL
- efficacy in reducing plasma ACTH and corticosterone levels versus SSR125543A at 30 mg/kg [1]: more efficacious

- EC50 ([2]; central plus C-terminal region CRH peptide, NT-biotin (SEQ ID NO: 483), read-out: ELISA EC50 C-Ter-CRH (NT-Bion)): > 100 nM
- EC50 ([2]; central region CRH peptide, CT-biotin (SEQ ID NO: 485), read-out: ELISA EC50 Central-CRH (CT-Bion)): > 100 nM
- EC50 ([2]; central region CRH peptide, NT-biotin (SEQ ID NO: 484), read-out: ELISA EC50 Central-CRH (NT-Bion)): > 100 nM
B2: PR302334-26: humanized variant of Series 9 mAb PR302334; VH SEQ ID NO: 277, VL SEQ ID NO: 328 (antibody, V domains shown)
VH: B1 VH with K13Q, A74S
VL: B1 VL
modifications: PR302334-18 VH, PR302334-26 VH, PR302334-27 VH; PR302334-10 VL, PR302334-24 VL, PR302334-26 VL, PR302334-4 VL
- binding to human UCN1 peptides in ELISA (human UCN1): except for PR302334-26, bound to human UCN1

— patent publication US20260042834A1, “ANTI-CORTICOTROPIN-RELEASING HORMONE ANTIBODIES AND POLYCYSTIC OVARY SYNDROME” (HBM ALPHA THERAPEUTICS, INC., priority 2022, published 2026)
